The text below walks through data of publication PMC10308643, “Nesfatin-3 possesses divalent metal ion binding properties, which remain hidden in the nucleobindin-2 precursor protein” (Cell Communication and Signaling : CCS, 2023).

“And” between values parts separate entries of the source, which are not always exact repeats. Equal entries are not always repeated.

The target in series [1] is nesfatin-3 from Gallus gallus (Gallus gallus). Description: AUC; sedimentation velocity, c(s) analysis; 0.5, 0.75 and 1.0 mg/ml protein in 20 mM Tris pH 7.5, 150 mM NaCl, 10 mM CaCl2; 20 °C, 50 000 rpm; monomer-dimer.
Series [2] has the same target. Description: AUC; sedimentation velocity, c(s) analysis; 0.5, 0.75 and 1.0 mg/ml protein in 20 mM Tris pH 7.5, 150 mM NaCl, 10 mM MgCl2; 20 °C, 50 000 rpm; monomer-dimer.
Series [3] shares this target. Description: AUC; sedimentation velocity, c(s) analysis; 0.5, 0.75 and 1.0 mg/ml protein in 20 mM Tris pH 7.5, 150 mM NaCl, 300 µM ZnCl2; 20 °C, 50 000 rpm; monomer-dimer.
The target is the same in series [4]. The series can be described thus: AUC; sedimentation velocity, c(s) analysis; 0.5, 0.75 and 1.0 mg/ml protein in 20 mM Tris pH 7.5, 150 mM NaCl, 5 mM EDTA (apo form); 20 °C, 50 000 rpm; monomer-dimer.
Series [5] shares this target. The series can be described thus: AUC; sedimentation velocity, c(s) analysis; 0.5, 0.75 and 1.0 mg/ml protein in 20 mM Tris pH 7.5, 150 mM NaCl, 100 µM ZnCl2; 20 °C, 50 000 rpm; monomer-dimer(-tetramer).
Series [6] has the same target. The series can be described thus: AUC; sedimentation velocity, c(s) analysis; 0.5, 0.75 and 1.0 mg/ml protein in 20 mM Tris pH 7.5, 150 mM NaCl, 800 µM ZnCl2; 20 °C, 50 000 rpm; monomer-dimer(-tetramer).
Series [7] deals with the molecule itself. The series can be described thus: AUC; sedimentation velocity, c(s) analysis; 0.5, 0.75 and 1.0 mg/ml protein in 20 mM Tris pH 7.5, 150 mM NaCl, 10 mM MgCl2; 20 °C, 50 000 rpm; monomer-dimer.
Series [8] deals with the molecule itself. The series can be described thus: AUC; sedimentation velocity, c(s) analysis; 0.5, 0.75 and 1.0 mg/ml protein in 20 mM Tris pH 7.5, 150 mM NaCl, 5 mM EDTA (apo form); 20 °C, 50 000 rpm; monomer-dimer.
Series [9] deals with the molecule itself. The series is described as above. This is another data set of the same source.

Usually stoichiometry N stands for the number of molecules, sites or subunits per partner or assembly. “nesfatin-3 from Gallus gallus (domain or fragment)”: the percent dimer in series [1] was 76% and 77% and 74%; in series [2], 100% and 83% and 92%; in series [3], 59% and 64% and 70%; in series [4] it was 75% and 76% and 77%; in [5] it was 74% and 80% and 79%; in series [6], 90% and 91% and 88%. In series [2], the dimer-to-monomer ratio (dimer:monomer) stood at 9. Also, the stoichiometry N in [4] is 2.

B1: nesfatin-3 from Homo sapiens (domain or fragment, UniProt P80303 190-420, looked up)
chain: EYLKTLNEEKRKEEESKFEEMKKKHENHPKVNHPGSKDQLKEVWEETDGLDPNDFDPKTFFKLHDVNSDGFLDEQELEALFTKELEKVYDPKNEEDDMVEMEEERLRMREHVMNEVDTNKDRLVTLEEFLKATEKKEFLEPDSWETLDQQQFFTEEELKEYENIIALQENELKKKADELQKQKEELQRQHDQLEAQKLEYHQVIQQMEQKKLQQGIPPSGPAGELKFEPHI
notes: also called hsNesfatin-3; apo-hsNesfatin-3; source: expressed from pQE-80L/HRV3C and purified as reported previously [16, 17]
B1: the percent dimer in series [7] and in series [9] was 100% in each case. In series [8], the “stoichiometry N” value was found to be 2.
